# Experimental data from article PMC10387098.
# Read-outs that look alike come from different tables or passages of the source.
# Columns and labels:
# [1] = biological target: KRAS4b residues 1–169 with N-terminal cysteine, Alexa Fluor 647-labeled, GMP-PNP-bound (UniProt P01116); assay: MST; 10 μL of 5 nM Alexa Fluor 647-labeled GMP-PNP-bound KRAS mixed with 10 μL of serially diluted BRAF proteins (10 pM to 1 μM); 0.05% Tween-20; Monolith NT.115pico; three independent dilution series averaged
# [2] = biological target: CRAF RBD-CRD (Homo sapiens) (UniProt P04049); assay: SPR; conditions: cited from earlier work
# CRAF RBD (Homo sapiens) = CRAF RBD (Homo sapiens) (UniProt P04049); conditions: cited from earlier work
# [3] = biological target: CRAF RBD-CRD-C2 (Homo sapiens) (UniProt P04049); conditions: cited from earlier work
# [4] = biological target: CRAF RBD-CRD (Homo sapiens) (UniProt P04049); conditions: cited from earlier work
Substance,Kd [1],Kd [2],Kd (CRAF RBD (Homo sapiens)),Kd [3],Kd [4]
"BRAF/MEK/14-3-3 (autoinhibited), as used for MST (from UniProt P15056 1-766; Q02750 1-393) (complex)",127 nM,,,,
"BRAF/14-3-3 (full length, active dimer) (from UniProt P15056 1-766) (complex)",106 nM,,,,
KRAS (from UniProt P01116),,188 nM,21.2 nM,188 nM,190 nM
